Assay results published in US20210163536A1.

Assays:
[1] = target: human melanocortin-1 receptor (human) (UniProt Q01726); assay: cell-based or functional assay
[2] = target: human melanocortin-3 receptor (human) (UniProt P41968); assay: cell-based or functional assay
[3] = target: human melanocortin-4 receptor (human) (UniProt P32245); assay: cell-based or functional assay
[4] = target: human melanocortin-5 receptor (human) (UniProt P33032); assay: cell-based or functional assay
[5] = target: human melanocortin-1 receptor (human) (UniProt Q01726); assay: competition with [125I]-NDP-alpha-MSH, CHO-K1 cell membranes
[6] = target: human melanocortin-3 receptor (human) (UniProt P41968); assay: as above
[7] = target: human melanocortin-4 receptor (human) (UniProt P32245); assay: as above
[8] = target: human melanocortin-5 receptor (human) (UniProt P33032); assay: as above

Sequence of human melanocortin-4 receptor (human) (P32245 whole entry): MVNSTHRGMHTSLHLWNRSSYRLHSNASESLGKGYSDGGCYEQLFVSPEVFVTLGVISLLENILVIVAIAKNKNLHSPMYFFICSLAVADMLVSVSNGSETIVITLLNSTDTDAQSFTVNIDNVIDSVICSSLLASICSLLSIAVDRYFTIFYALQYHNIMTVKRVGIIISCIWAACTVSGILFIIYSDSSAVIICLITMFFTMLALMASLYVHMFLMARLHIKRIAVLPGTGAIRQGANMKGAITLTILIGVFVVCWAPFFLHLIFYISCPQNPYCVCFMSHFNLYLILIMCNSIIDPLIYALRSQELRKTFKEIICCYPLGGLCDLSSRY
Sequence of human melanocortin-5 receptor (human) (P33032 whole entry): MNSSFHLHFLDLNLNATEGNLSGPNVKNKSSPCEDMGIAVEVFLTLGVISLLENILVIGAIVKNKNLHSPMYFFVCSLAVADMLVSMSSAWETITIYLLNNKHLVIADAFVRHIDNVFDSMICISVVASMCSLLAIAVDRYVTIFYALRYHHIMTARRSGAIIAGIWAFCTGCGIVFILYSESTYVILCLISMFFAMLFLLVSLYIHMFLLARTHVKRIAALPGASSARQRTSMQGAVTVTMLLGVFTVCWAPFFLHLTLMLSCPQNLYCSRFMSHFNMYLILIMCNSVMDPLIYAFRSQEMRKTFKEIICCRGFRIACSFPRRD
Sequence of human melanocortin-1 receptor (human) (Q01726 whole entry): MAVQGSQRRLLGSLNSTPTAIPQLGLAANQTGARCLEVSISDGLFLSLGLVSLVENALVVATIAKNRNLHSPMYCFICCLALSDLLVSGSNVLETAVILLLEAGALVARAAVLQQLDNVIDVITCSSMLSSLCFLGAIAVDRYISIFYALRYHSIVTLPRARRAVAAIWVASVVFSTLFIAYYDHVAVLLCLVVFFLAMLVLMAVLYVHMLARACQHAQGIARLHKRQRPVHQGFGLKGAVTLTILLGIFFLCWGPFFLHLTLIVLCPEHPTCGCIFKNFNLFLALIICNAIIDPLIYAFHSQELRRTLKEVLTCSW
Sequence of human melanocortin-3 receptor (human) (P41968 whole entry): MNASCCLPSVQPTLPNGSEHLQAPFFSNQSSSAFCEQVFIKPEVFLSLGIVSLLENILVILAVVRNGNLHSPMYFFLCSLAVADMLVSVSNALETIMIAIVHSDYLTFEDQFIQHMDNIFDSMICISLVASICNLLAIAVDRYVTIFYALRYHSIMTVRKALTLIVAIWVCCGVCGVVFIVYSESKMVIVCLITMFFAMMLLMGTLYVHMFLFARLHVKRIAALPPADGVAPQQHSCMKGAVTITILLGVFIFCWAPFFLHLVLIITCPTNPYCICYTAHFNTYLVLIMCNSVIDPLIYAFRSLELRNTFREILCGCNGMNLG

Row | EC50, intracellular cyclic AMP (cAMP) levels [1] [nM] | EC50, intracellular cyclic AMP (cAMP) levels [2] [nM] | EC50, intracellular cyclic AMP (cAMP) levels [3] [nM] | EC50, intracellular cyclic AMP (cAMP) levels [4] [nM] | Ki [5] [nM] | Ki [6] [nM] | Ki [7] [nM] | Ki [8] [nM] | Substance
1 | 12.9 | 10.3 | 0.125 | 7440 |  |  |  |  | Hydantoin(C(O)-(Gly-D-Arg))-cyclo(Cys-Glu-His-D-Phe-Arg-Trp-Cys)-NH2 (peptide; unit assumed)
2 | 56.6 |  | 4.5 | 9300 |  |  |  |  | cyclo[Hydantoin(C(O)-(Asp-D-Ala))-His-D-Phe-Arg-Trp-Orn]-NH2 (peptide; unit assumed)
3 |  |  |  |  | 9.49 | 124 | 2.95 | 2260 | Hydantoin(C(O)-(D-Arg-Gly))-cyclo(Cys-Glu-His-D-Phe-Arg-Trp-Cys)-NH2 (peptide)
4 |  |  |  |  | 9030 | 2630 | 35.8 | 1160 | cyclo[Hydantoin(C(O)-(Asp-Aic))-D-2-Nal-Arg-Trp-Lys]-NH2 (peptide)
5 |  |  |  |  | 16.4 | 863 | 4.97 |  | cyclo[Hydantoin(C(O)-(Glu-D-Ala))-His-D-Phe-Arg-Trp-Dap]-NH2 (peptide)
6 |  |  |  |  | 28 | 90.5 | 12.7 | 877 | cyclo[Hydantoin(C(O)-(Glu-D-Ala))-His-D-Phe-Arg-Trp-Dab]-NH2 (peptide)
7 |  |  |  |  | 7570 | 1920 | 420 | 2880 | cyclo[Hydantoin(C(O)-(Asp-A3c))-D-2-Nal-Arg-Trp-Lys]-NH2 (peptide)
8 |  | 39.2 | 4.94 |  |  |  |  |  | cyclo[Hydantoin(C(O)-(Glu-D-Ala))-His-D-Phe-Arg-Trp-Orn]-NH2 (peptide; unit assumed)

Continued, substance first:

Row | Substance | EC50, intracellular cyclic AMP (cAMP) levels [1] [nM] | EC50, intracellular cyclic AMP (cAMP) levels [2] [nM] | EC50, intracellular cyclic AMP (cAMP) levels [3] [nM] | EC50, intracellular cyclic AMP (cAMP) levels [4] [nM] | Ki [5] [nM] | Ki [6] [nM] | Ki [7] [nM] | Ki [8] [nM]
9 | cyclo[Hydantoin(C(O)-(Asp-D-Ala))-His-D-Phe-Arg-Trp-Dap]-NH2 (peptide) |  |  |  |  | 66.6 | 1820 | 19.9 | 
10 | Hydantoin(C(O)-(D-Arg-Gly))-cyclo(Cys-Glu-His-D-Phe-Arg-Trp-Cys)-NH2 (peptide; unit assumed) | 18 | 17.1 | 0.16 | 2710 |  |  |  | 
11 | cyclo[Hydantoin(C(O)-(Asp-D-Ala))-His-D-Phe-Arg-Trp-Orn]-NH2 (peptide) |  | 88.6 |  |  | 37.7 | 576 | 7.81 | 6400
12 | cyclo[Hydantoin(C(O)-(Asp-His))-D-2-Nal-Arg-Trp-Lys]-NH2 (peptide) |  |  |  |  | 200 |  |  | 
13 | cyclo[Hydantoin(C(O)-(Asp-A6c))-D-2-Nal-Arg-Trp-Lys]-NH2 (peptide) |  |  |  |  | 2170 | 1480 | 16.5 | 451
14 | cyclo[Hydantoin(C(O)-(Glu-D-Ala))-His-D-Phe-Arg-Trp-Orn]-NH2 (peptide) |  |  |  |  | 60.4 | 2840 | 52.4 | 
15 | Hydantoin(C(O)-(Gly-D-Arg))-cyclo(Cys-Glu-His-D-Phe-Arg-Trp-Cys)-NH2 (peptide) |  |  |  |  | 4.3 | 78 | 1.77 | 4540
16 | Hydantoin(C(O)-(Nle-Gly))-cyclo(Cys-D-Ala-His-D-Phe-Arg-Trp-Pen)-NH2 (peptide; unit assumed) | 17 | 21.5 | 0.584 | 352 |  |  |  | 
17 | cyclo[Hydantoin(C(O)-(Asp-A5c))-D-2-Nal-Arg-Trp-Lys]-NH2 (peptide) |  |  |  |  | 9940 | 2390 |  | 
18 | cyclo[Hydantoin(C(O)-(Asp-D-Ala))-His-D-Phe-Arg-Trp-Dap]-NH2 (peptide; unit assumed) |  | 49.3 | 2.12 |  |  |  |  | 
19 | cyclo[Hydantoin(C(O)-(Asp-Apc))-D-2-Nal-Arg-Trp-Lys]-NH2 (peptide) |  |  |  |  | 1280 | 2760 | 266 | 
20 | Hydantoin(C(O)-(Nle-Gly))-cyclo(Cys-D-Ala-His-D-Phe-Arg-Trp-Pen)-NH2 (peptide) |  |  |  |  | 12.9 |  | 3.53 | 27.1
21 | cyclo[Hydantoin(C(O)-(Glu-D-Ala))-His-D-Phe-Arg-Trp-Dap]-NH2 (peptide; unit assumed) | 56.7 | 18.2 | 0.182 | > 10000 |  |  |  | 
